Key:
apo GPR158 (human) = apo GPR158 (human) (UniProt Q5T848); test: cryo-EM structure; apo GPR158 in 20 mM HEPES pH 7.5, 200 mM NaCl, 0.01% LMNG, 0.001% CHS, 5 mM EDTA, with 0.1% OG added; 12.7 mg/ml
[1] = target: GPR158 (residues 1–863) (human) (UniProt Q5T848); test: cryo-EM structure; GPR158 (1-863), RGS7-Flag and Gβ5 co-expressed, co-purified by anti-Flag resin and Superose 6 in LMNG/CHS, treated with 0.1% OG; 2:1:1 and 2:2:2 complexes sorted from one sample
[2] = target: the molecule itself; test: as above

**Q.** “apo GPR158 (from UniProt Q5T848 24-710) (receptor)” was tested. Which stoichiometry N (apo GPR158 (human)) did it give?
**A.** 2 protomers

**Q.** For “RGS7–Gβ5 heterodimer (from UniProt P49802 1-495; O14775 1-395) (complex)”, which stoichiometry N (RGS7–Gβ5 heterodimer per GPR158 dimer) [1] is on record?
**A.** 1

**Q.** And the stoichiometry N (RGS7–Gβ5 heterodimers per GPR158 dimer) [1]?
**A.** 2

B1: GPR158 (residues 1–863) (receptor, human, UniProt Q5T848 24-863, looked up)
chain: ASRDPQGRPDSPRERTPKGKPHAQQPGRASASDSSAPWSRSTDGTILAQKLAEEVPMDVASYLYTGDSHQLKRANCSGRYELAGLPGKWPALASAHPSLHRALDTLTHATNFLNVMLQSNKSREQNLQDDLDWYQALVWSLLEGEPSISRAAITFSTDSLSAPAPQVFLQATREESRILLQDLSSSAPHLANATLETEWFHGLRRKWRPHLHRRGPNQGPRGLGHSWRRKDGLGGDKSHFKWSPPYLECENGSYKPGWLVTLSSAIYGLQPNLVPEFRGVMKVDINLQKVDIDQCSSDGWFSGTHKCHLNNSECMPIKGLGFVLGAYECICKAGFYHPGVLPVNNFRRRGPDQHISGSTKDVSEEAYVCLPCREGCPFCADDSPCFVQEDKYLRLAIISFQALCMLLDFVSMLVVYHFRKAKSIRASGLILLETILFGSLLLYFPVVILYFEPSTFRCILLRWARLLGFATVYGTVTLKLHRVLKVFLSRTAQRIPYMTGGRVMRMLAVILLVVFWFLIGWTSSVCQNLEKQISLIGQGKTSDHLIFNMCLIDRWDYMTAVAEFLFLLWGVYLCYAVRTVPSAFHEPRYMAVAVHNELIISAIFHTIRFVLASRLQSDWMLMLYFAHTHLTVTVTIGLLLIPKFSHSSNNPRDDIATEAYEDELDMGRSGSYLNSSINSAWSEHSLDPEDIRDELKKLYAQLEIYKRKKMITNNPHLQKKRCSKKGLGRSIMRRITEIPETVSRQCSKEDKEGADHGTAKGTALIRKNPPESSGNTGKSKEETLKNRVFSLKKSHSTYDHVRDQTEESSSLPTESQEEETTENSTLESLSGKKLTQKLKE
notes: signal peptide in the construct; human GPR158 residues 1-863, followed by a PreScission protease site, GFP and a Twin-Strep II tag; No PreScission cleavage is told for the purification of the complex
**Q.** With B1 as the molecule, how does the “stoichiometry N” value [2] read?
**A.** 2 protomers

— article PMC8611064, “Structure of the class C orphan GPCR GPR158 in complex with RGS7-Gβ5” (Nature Communications, 2021)
